The results in this text go back to patent US5763284A, “Methods for peptide synthesis and purification” (Dade International Inc., priority 1995, dated 1998).

The test system of assay [1] is TA1 antibody. In words: BIAcore surface plasmon resonance binding of PenI:C9 muteins to immobilized TA1. Also on record: species or system mouse. The following applies: 30 μg/mL injected; relative response of wild type PenI:C9 set to 100%. From the text:
In order to analyze the different binding of the different PenI:C9 muteins to the TA1 antibody (TA1 was raised from a mouse that had been immunized with F1.2-C9 KLH by standard procedures; F1.2-C9 is the purified factor Xa cleavage product of prothrombin), a biosensor system using surface plasmon resonance detection (BIAcore, Pharmacia Biosensor) has been used. This system records the binding of the antigen to the immobilized TA1 in real time.
TA1 has been chemically immobilized onto the carboxymethylated dextran matrix of the sensor chip (CM5) using the amine coupling kit and the method provided by the manufacturer (Pharmacia Biosensor). For this purpose TA1 was diluted to 57 μg/mL in 10 mM Na-acetate buffer pH4. After activation of the sensor chip with 30 μl of a 1:1 mixture of 11.5 mg/mL N-hydroxysuccinimide (NHS) and 75 mg/ml N-ethyl-N'-(dimethylaminopropyl) carbodiimide (EDC) 5 μL of the TA1 solution was injected at a flow rate of 3 μL/min. […]
Each PenI:C9 and the native PenI protein was injected according to this program and a relative response in RU which represent the amount of penI:C9 mutein bound, was calculated by subtracting the RU of report point 1. from report point 2. Percent of binding was then calculated by setting the relative response of the wild type to 100%. […]

In assay [2] the test system is D011 cells. In words: Loading of A20 APC and activation of D011 T cells, IL-2 release ELISA. The following applies: DO11 and A20 cells, 24 hours. It counts as cell-based, murine. Here is the method: The efficacy of a fusion polypeptide of the invention to load APCs and activate T cells was tested. A penI:Ova fusion polypeptide (i.e., a fusion polypeptide containing the penI protein linked to an Ova target peptide) was employed as well as other materials. Three independent experiments were performed utilizing A20 APC and the D011 T cell […] cell line. D011 cells are specifically responsive to Ova loaded major histocompability complex class II (MHCII) molecules presented by A20 APCs. A20 cells were loaded with 5 μg purified penI:Ova fusion polypeptide or 5 μg synthetic Ova peptide (positive control synthesized by Mimetics, Chiron Corp.) for 1 hour. 1×10^5 D011 cells were added and incubated with the loaded A20 cells for 24 hours. The degree of activation of D011 cells was determined by the release of Interleukin 2 (IL-2) into the culture medium. After 24 hours of incubation supernatants were collected and analyzed in an ELISA format for IL-2 (using two anti-IL2 antibodies from Pharmacia).
The following Table summarizes the results of the three experiments and includes several negative controls. One of these controls is a PenI:Ova fusion protein containing the hen egg lysozyme (HEL) peptide preceded by the Factor Xa cleavage recognition site IEGRNLCNIPCSALLSS (SEQ ID NO: 55) and therefore should not stimulate D011 cells.

B1: PenI: penI repressor protein of Bacillus licheniformis without fusion peptide; negative control (protein, UniProt P06555 1-128, looked up)
Penicillinase repressor: MKKIPQISDAELEVMKVIWKHSSINTNEVIKELSKTSTWSPKTIQTMLLRLIKKGALNHHKEGRVFVYTPNIDESDYIEVKSHSFLNRFYNGTLNSMVLNFLENDQLSGEEINELYQILEEHKNRKKE
As to B1, the “Percent of binding to TA1” value in assay [1] is less than 5%. Besides, the IL-2 release in assay [2] (Experiment 1), in assay [2] (Experiment 2) and in assay [2] (Experiment 3) was 0 pg/mL in each case.
